The record followed here is PMC7432317, “Structural Analysis of the SANT/Myb Domain of FLASH and YARP Proteins and Their Complex with the C-Terminal Fragment of NPAT by NMR Spectroscopy and Computer Simulations” (International Journal of Molecular Sciences, 2020).

For the test, the target named is T1, C-terminal fragment of FLICE-associated huge protein (FLASH), residues 1923-1982 (human, UniProt Q9UKL3 1923-1982).
T1 construct: FLASH (FLICE-associated huge protein), residues 1923-1982; residue 1982 is the C-terminal amino acid of the protein; Uniformly 15N- or 13C,15N-labelled for NMR; also called FLASH fragment; SANT/Myb domain of FLASH; source: E. coli BL21 (DE3), pET28a, minimal M9 media, purified (nickel beads, SEC Superdex 75)
T1 sequence (looked up): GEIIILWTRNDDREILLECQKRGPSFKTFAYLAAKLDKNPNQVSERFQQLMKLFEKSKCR
The test can be described thus: NMR titration; 1H-15N HSQC of 15N-labelled FLASH fragment (300 uM) with step-wise addition of the NPAT peptide (150 uM, two fold molar excess of FLASH analysed; equimolar mixtures precipitated); 25 mM TRIS-HCl, 200 mM KCl, pH 6.2, 50 mM Arg+Glu, 40 mM TCEP, 298 K. Particulars: both partners purified.

B1: NPAT peptide, the last 31 residues of NPAT (1397-1427) (peptide)
peptide: KKKKIKKKKLPSSFPAGMDVDKFLLSLHYDE
notes: Free N-terminus, carboxyl at C-terminus; also called C-terminal NPAT peptide; source: synthetic peptide (Fmoc solid phase synthesis, RP-HPLC purified)
With B1, the binding result is “binds”.
